Legend:
Swine lungs = test: Lung volume reduction: injection of peptide hydrogel into bronchi of excised lungs; settings: for filling of lumens of the lungs (histology): hydrogel with 0.00585% Indigo Carmine
From the text: Swine lungs were obtained from freshly euthanized pigs. An endotracheal tube, connected to a syringe filled with a peptide hydrogel, was inserted through the trachea and primary bronchus into the lobe of interest. The tube was led through the bronchi to the end of the appropriate lobe and the distance was noted.
The self-assembling peptide hydrogels were comprised of Ac-RADARADARADARADA-NH2 (SEQ ID NO: 1) (i.e., RADA16) or Ac-IEIKIEIKIEIKI-NH2 (SEQ ID NO: 2) (i.e., IEIK13). RADA16 (SEQ ID NO:1) or IEIK13 (SEQ ID NO:2) was mixed with 0.00585% Indigo Carmine to observe spreading of the hydrogels throughout the lobes. When mixed, the peptides were reconstituted with […]. The peptides were reconstituted first in deionized water, and subsequently with 1% Indigo Carmine to provide a final concentration of 0.00585% of the contrast reagent.
Once the lobe of interest was identified, the endotracheal tube was fed to the end where the hydrogels were injected. After each injection of 1 ml of hydrogel the tube was retracted 2 cm and the injection was repeated. This procedure was repeated until a backflow of hydrogel was observed from the bronchi and the total volume of hydrogel injected was noted. The final injection ranged from 0.5-1.5 ml. After backflow of hydrogel was observed, the lobes were cut at 90 degrees to the midline for histological analysis. FIG. 25 illustrates the procedural flow of injecting peptide hydrogel into the bronchi of a single lobe of the lung and observation of penetration of the solution. Lumen penetration of 1% Indigo Carmine solution (left) was compared to 1.5% IEIK13 (SEQ ID NO:2)+0.00585% Indigo Carmine (right).
Tissue samples were fixed in paraformaldehyde and rinsed with ethanol. Histology was conducted at Beth Israel Deaconess Medical Center. […] FIG. 28A presents the IEIK13 (SEQ ID NO:2) gel observed within the major lumens. FIG. 28B presents the IEIK13 ((SEQ ID NO:2) gel observed within the minor lumens. Due to H&E processing, peptide gels break/fragment. Optical imaging has shown that these gels remain as bulk structures.

[1] = Rheological properties of ionic strength adjusted hydrogels after DMEM treatment for 10 min; assay type: physicochemical; settings: 1% hydrogels
Protocol: Based on the results of the effect on the rheological properties of the peptide solutions after adjusting their ionic strength levels, the effect on the rheological properties of the peptide hydrogels after DMEM treatment for 10 min was evaluated. […] The results are shown in FIG. 15 for PuraMatrix® (SEQ ID NO:1) 1% hydrogels and in FIG. 16 for IEIK13 (SEQ ID NO:2) 1% hydrogels, both after DMEM treatment for 10 min. Frequency sweep tests were performed from 1 rad/sec to 10 rad/sec at 1 Pa and the storage modulus at 1 rad/sec was selected for data.
Based on the results of the effect on the rheological properties of the peptide solutions and hydrogels after adjusting their ionic strength levels with NaCl, the effect of various salts (KCl, MgCl2, and CaCl2) was also evaluated. The rheological property of PuraMatrix® (SEQ ID NO:1) solutions increases with ionic strength adjustment at 0.15 M of all the salts. Increases of the rheological property of PuraMatrix® (SEQ ID NO:1) solutions with various salts were not predominantly different. However, increases of the rheological property of PuraMatrix® (SEQ ID NO:1) solutions may vary depending on the salting out constant, K of each salt. Constant K is a constant in Cohen's equation: log S=B−KI, where S is solubility, B is idealized solubility, K is salting out constant, and I is ionic strength. With a higher value of constant K and ionic strength of salts, solubility of the peptide may decrease resulting in strong peptide self-assembly with increased hydrophobic effect and higher rheological properties of the peptide solution. The constant K of NaCl may be higher than the other salts. […] The results are shown in FIG. 17 for PuraMatrix® (SEQ ID NO:1) 1% solution before DMEM treatment, and in FIG. 18 for PuraMatrix® (SEQ ID NO:1) 1% hydrogels after DMEM treatment for 10 min Frequency sweep tests were performed from 1 rad/sec to 10 rad/sec at 1 Pa and the storage modulus at 1 rad/sec was selected for data.

[2] = Gelation kinetics of pH adjusted peptides, time sweep test with DMEM; assay type: physicochemical
Protocol: The effect of pH level on the properties of gelation kinetics was evaluated to identify optimized pH levels for the peptides as described herein. Fast gelation kinetics of PuraMatrix® and other peptides within body fluid may generally improve its function and response time for various clinical applications. The pH level may impart response time to begin gelation when treated with simulated body fluid including but not limited to DMEM. […] A fast response time of PuraMatrix® (SEQ ID NO:1) and other peptides within body fluid may generally improve its function and response time for various clinical applications.
(§1) Time sweep tests were performed at 1 rad/sec and at 1 Pa with 20 mm plates and 500 μm gap distance. During time sweep test of PuraMatrix® (SEQ ID NO:1) 2.5% solution, DMEM was added into the chamber surrounding the measuring plates to soak PuraMatrix® (SEQ ID NO:1) solution at 0 time point. The results are shown in FIG. 9A for PuraMatrix® (SEQ ID NO:1) 2.5% solution.
as §1, with “IEIK13” for “PuraMatrix®”, “NO:2) 1.5%” for “NO:1) 2.5%”, “NO:2) 1.5%” for “NO:1)”, “point and continuously data was recorded.” for “point.”, “9B” for “9A”

[3] = with pH adjustment, PuraMatrix 2.5%, IEIK13 1.5% solution

| Substance | lung volume reduction, penetration into lung tissue, versus 1.5% IEIK13 (Swine lungs; 1.0% with 0.00585% Indigo Carmine) | filling of lumens of the lungs (histology) (Swine lungs) | ionic strength above which the rheological property of hydrogels after DMEM treatment decreases ([1]; DMEM treatment for 10 min) | ionic strength up to which the rheological property of hydrogels after DMEM treatment increased ([1]; DMEM treatment for 10 min) | gelation response to DMEM [2, 3] | rheological property of hydrogels after DMEM treatment ([1]; ionic strength adjustment up to 0.025 M, DMEM 10 min) | gelation response to DMEM ([2]; without pH adjustment, 1.5% solution) |
| --- | --- | --- | --- | --- | --- | --- | --- |
| Arg-Ala-Asp-Ala-Arg-Ala-Asp-Ala-Arg-Ala-Asp-Ala-Arg-Ala-Asp-Ala [PuraMatrix ®] | decidedly better | filled both major and minor lumens | above 0.7 M | up to 0.7 M | immediate storage modulus increase |  |  |
| Ile-Glu-Ile-Lys-Ile-Glu-Ile-Lys-Ile-Glu-Ile-Lys-Ile [IEIK13] |  | filled both major and minor lumens | above 0.03 M |  | immediate storage modulus increase | did not significantly change | immediate storage modulus increase |
